In the DeepSol protein solubility set:

assay: soluble on expression in E. coli; label from the status in PepcDB or PDB records

Sequence | soluble on expression in E. coli
MNLVPPKEEENLIVFNKQLGEDRRIVMSRSNLNELLKALEENELLCTDLYQVNTDGVILTKQRAEKVIGWARNHYLSSCPSPSIKEGRLILPRESIEISVKRLKAQEDISRKPTQNLKRFLFLQNIAKDEFETNFVSAVVAPGEIGVKFDDIGALEHVKKTLNELVILPMRRPELFTRGNLLRPCKGILLFGPPGTGKTLLAKALATEAGANFISITGSTLTSKWFGDAEKLTKALFSFASKLAPVIIFVDEVDSLLGARGGAFEHEATRRMRNEFMAAWDGLRSKDSQRILILGATNRPFDLDDAVIRRLPRRIYVDLPDAENRLKILKIFLTPENLETGFEFDKLAKETEGYSGSDLKNLCIAAAYRPVQELLQEENKDSVTNASPDLRPLSLDDFIQSKAKVSPSVAYDATTMNELRKWNEQYGEGGTRTKSPFGF | soluble
MNMKNELHVISNGHMPFEELVNVAMQIESEIDYLHIREREKSTKELYEGVESLLMEGFPASKIVINDRIDIAILLNIPRVQLGYRSTDVKSVKEKFSYLHVGYSVHSLDEAIVAFKNGADSLVYGHVFPTDCKKGVPARGLEEISDIARCLSIPITAIGGITPENTVDVLTNGVSGIAVMSGIVSSSNPYSKAKSYKESIRKWAEKHV | not soluble
MNMNAKIIDQDNKGIGVRVHDNDETEHTVAVGFDGEIQGHSQDGYPDDPAKRTGKENEYVSQARRYAKYYVAKEKGYDVLPWDRDTAAMQRVQTAIESLSDEDFEKYFGTYFDQINSRLPNVTAPVPEPDAVGDDEFVLYLLDVYLDEAGRIEAVSDIHFLYLDDNRERQVVLGDQPLNRDPDARLQLKPNYLPSLEVAQEFFVYHLRCQIRDCYLLRGEEPPEQYRVIGPGLYDAATRYLYEDRPYRPYHKLHADIPGYSLEFDYGFGEQGKEMAKIAGAVADNK | not soluble
MNNDHLDPINSLNVPELADTTFAMDFLIRAKEGVRNTAVALTETASPDVRALLRKQLMQGIAMHQEITELMISKKWFHPYELSEQYKLDQLSAKNTIMVGNMNLFPDETNRKGMFDRTPDEHMAGDPLEHHHHHH | not soluble
MNNGFFNSDFDSIFRRMMKDMQGSNQVGNKKYYINGKEVSPEELAQLTQQGGNHSAEQSAQAFQQAAQRQQGQQGGNGNYLEQIGRNLTQEARDGLLDPVIGRDKEIQETAEVLSRRTKNNPILVGEAGVGKTAIVEGLAQAIVEGNVPAAIKDKEIISVDISSLEAGTQYRGAFEENIQKLIEGVKSSQNAVLFFDEIHQIIGSGATGSDSGSKGLSDILKPALSRGEISIIGATTQDEYRNNILKDAALTRRFNEVLVNEPSAKDTVEILKGIREKFEEHHQVKLPDDVLKACVDLSIQYIPQRLLPDKAIDVLDITAAHLSAQSPAVDKVETEKRISELENDKRKAVSAEEYKKADDIQNEIKSLQDKLENSNGEHTAVATVHDISDTIQRLTGIPVSQMDDNDIERLKNISNRLRSKIIGQDQAVEMVSRAIRRNRAGFDDGNRPIGSFLFVGPTGVGKTELAKQLAIDLFGNKDALIRLDMSEYSDTTAVSKMIGTTAGYVGYDDNSNTLTEKVRRNPYSVILFDEIEKANPQILTLLLQVMDDGNLTDGQGNVINFKNTIIICTSNAGFGNGNDAEEKDIMHEMKKFFRPEFLNRFNGIVEFLHLDKDALQDIVNLLLDDVQVTLDKKGITMDVSQDAKDWLIEEGYDEELGARPLRRIVEQQVRDKITDYYLDHTDVKHVDIDVEDNELVVKGK | not soluble
MNNHFKCIGIVGHPRHPTALTTHEMLYRWLCTKGYEVIVEQQIAHELQLKNVKTGTLAEIGQLADLAVVVGGDGNMLGAARTLARYDIKVIGINRGNLGFLTDLDPDNAQQQLADVLEGHYISEKRFLLEAQVCQQDCQKRISTAINEVVLHPGKVAHMIEFEVYIDEIFAFSQRSDGLIISTPTGSTAYSLSAGGPILTPSLDAITLVPMFPHTLSARPLVINSSSTIRLRFSHRRNDLEISCDSQIALPIQEGEDVLIRRCDYHLNLIHPKDYSYFNTLSTKLGWSKKLFMAGDPLEHHHHHH | soluble
MNNIRLLNQNDLDSYIELMKFGHHNYEWDRYYLENVSIDRLKTILSNHTDYWNIFGAFEDDELVATCTLKQMNYVGKCHKAILENNFVKNNDEIVNRELINHIIQYAKEQNIETLMIAIASNNISAKVFFSSIGFENLAFEKNASKIGNEYFDENWLIYSTTE | not soluble
MNNNDVLRKLRYTFNFNDKQMVAIFASAGEEVSREQVSQWLKKDTDSDFVALFDTKLAVFLNGFINEKRG | not soluble
MNNSAFTFQTLHPDTIMDALFEHGIRVDSGLTPLNSYENRVYQFQDEDRRRFVVKFYRPERWTADQILEEHQFALQLVNDEVPVAAPVAFNGQTLLNHQGFYFAVFPSVGGRQFEADNIDQMEAVGRYLGRMHQTGRKQLFIHRPTIGLNEYLIEPRKLFEDATLIPSGLKAAFLKATDELIAAVTAHWREDFTVLRLHGDCHAGNILWRDGPMFVDLDDARNGPAVQDLWMLLNGDKAEQRMQLETIIEAYEEFSEFDTAEIGLIEPLRAMRLVYYLAWLMRRWADPAFPKNFPWLTGEDYWLRQTATFIEQAKVLQEPPLQLTPMY | soluble
MNPDEPNFIWKDLNAVRDMGCIIENELSEVLPNKRYETYSIIGRSGEFNETFNDYEPFDYEIEDVTIPYENLAAVKRWLTGKSKLITHNDEDKYLDAICTMSKPTSFKNEWGVFYTFNVEFRCQPFKRKVNEQPKVIKTKSIEITDHGDEIAFPYIEINSKGGDITLNIGSNSLTILRTQSGIVTIDTEKGKAIQEGNPLFTRGSWIKTNPGQNKLNISGNFIEAKFWNRSAYL | not soluble
MNPESRVIRKVLALQNDEKIFSGERRVLIAFSGGVDSVVLTDVLLKLKNYFSLKEVALAHFNHMLRESAERDEEFCKEFAKERNMKIFVGKEDVRAFAKENRMSLEEAGRFLRYKFLKEILESEGFDCIATAHHLNDLLETSLLFFTRGTGLDGLIGFLPKEEVIRRPLYYVKRSEIEEYAKFKGLRWVEDETNYEVSIPRNRIRHRVIPELKRINENLEDTFLKMVKVLRAEREFLEEEAQKLYKEVKKGNCLDVKKLKEKPLALQRRVIRKFIGEKDYEKVELVRSLLEKGGEVNLGKGKVLKRKERWLCFSPEV | soluble
MNPFQKIKSAVNKRQRFFINRTLQRKLTNQGMTVISANCVGAFILHDLHQPFNSPFVNLYLSPQDFLRYLQNIDFYLTQPLTFVQTEKSYPVGKLADLEIHFMHYHSEQEANEKWQLRTSRMKLDNLFIMMTDRDGVTEKDIQLFDQLPFKNKVIFTHKPYPAFKSAYYIKGFEKQNQVGDIFEFSGWNGKKYYDQFDYVKWFNHA | not soluble
MNPIIDGIIALEGGYVFNPKDKGGATHWGITEATARAHGYAGDMRDLTHAEAYAILEEDYWIKPGFDVISTLSWPVSFELCDAAVNIGAYHPSAWLQRWLNVFNHEGKRYPDIHVDGNIGPRTLAALEHYLAWRGQEGEAVLVKALNCSQGTYYLNVAEKNHNNEQFIYGWIKNRVT | soluble
MNPKFPDSPFLNDLLARLGEVLRQSPAQDFERNLKAGVTSMLTKLDLVSREEFDVQAAVLARTREKLGQLEARLADLEKHERQADEG | not soluble
MNQEKLDLRKSAADDTHSGAAFAFQALTPDLILDAIESLGVYPETGLLALNSYENRVYQFRSDEGQRYVVKFYRPDRWSDAQIQEEHDFALALAEQEIPMAVPTAVQGHTLHHFQGFRFALFPSIGGRAFEVDNLEQLEFVGRFIGRMHQYGAQSVFQAREPLNPQILGDEPLAWLKQSELVPTSLRVAFFTVVEQVLAKVNTLWAQQRFKPIRLHGDLHPGNILWTPDGPGFVDLDDARMGPAIQDLWMMLTGDRAQQQLQLEVLLEAYEEFCEFDTRQLALIEPLRALRMVHYNAWIGRRWQDPAFPMHFPWFGDEKYWEQQILAFKEQLAALDEPPLSLIPY | not soluble
MNQGERNAVSLLKDKLFNEEGKPVNLIFCYTILQMKVAERIMAQHPGERFYVVLMSENRNEKYDYYFNQIKDKAERAYFFYLPYGLNKSFNFIPTMAELKVKSMLLPKVKRIYLASLEKVSIAAFLSTYPDAEIKTFDDGTNNLIRESSYLGGEFAVNGAIKRNFARMMVGDWSIAKTRNASDEHYTIFKGLKNIMDDGRRKMTYLPLFDASELKAGDETGGTVRILLGSPDKEMKEISEKAAKNFNIQYVAPHPRQTYGLSGVTALNSPYVIEDYILREIKKNPHTRYEIYTFFSGAALTMKDFPNVHVYALKPASLPEDYWLKPVYALFRQADIPILAFDDKLEHHHHHH | not soluble
MNQIWLKVCAASDMQPGTIRRVNRVGAAPLAVYRVGDQFYATEDTCTHGIASLSEGTLDGDVIECPFHGGAFNVCTGMPASSPCTVPLGVFEVEVKEGEVYVAGEKKLEHHHHHH | soluble
MNQKDTRKETLEFNKLQKRLRRNVGNAITDYNMIEEGDVVMACISGGKDSFAMLDILLNLQKAAPIKFEVVAVNLDQKQPGFPEHILPEYFETLNIPYYIVDKDTYSVVKEKVPEGKTTCGLCSRLRRGTLYSFAEKIGATKLALGHHMDDIVETMFLNMFHGSRLKAMPPKLRSDDGRNVVIRPLTYCREKDLIKYAEHKDFPIIPCNL | not soluble
MNQTAAFSEVEMSIVVPKESDIKDVSQLTSVQAPTKVDKNNIEILMSALKKDKKVDVKVDDVASYQEAYDNLKSGKSKAMVLSGSYASLLESVDSNFASNLKTIYTYKIKKKNSNSANPVDSKVFNIYISGIDTYGPISTVSRSDVNIIMTVNMNTHKILLTTTPRDAYVKIPGGGADQYDKLTHAGIYGVETSEQTLEDLYGIKIDYYARINFTSFLKLIDQLGGVTVHNDQAFTQGKFDFPVGDIQMNSEQALGFVRERYNLDGGDNDRGKNQEKVISAILNKLASLKSVSNFTSIVNNLQDSVQTNMSLDTINALANTQLDSGSKFTVTSQAVTGTGSTGQLISYAMPNSSLYMMKLDNSSVASASQAIKNLMEEKLEHHHHHH | soluble
MNQVEMTEFPVGKPQEALYGVASTPDGALWFTLAKGNAIGRLSPDGAVSRFPLPHADGQPTTITCGPDGRPWFTLSSANAIGRLAPDGALRMFELPRPASRPFGIAGGHDGCLWFAEMAGDRIGRITIDGDIEEYDLPVKGGYPSCMAAGRDGLMWFTLNQAGAVGSISATAAPRIFPLGAADAAPVGIASDAQGALWIAQAGNGAIARFDAGGRITEFPLHSRAARPHAIAADAAGNLWFTEWGANRIGRISEAGDLAGYELAAPGSEPHGIAIDPHGCVWAALETGRLVRLQASPRDLEHHHHHH | not soluble
MNRARDWMRQAERDLEHAQKSLELGHWEWACFAAHQAAEKALKAVYFALGAEAFGHALTHLLAGLHERLNLTPELRRCALVLDRLYIPTRYPDSWEAGAPLDYYGEEEARDALLCAGEILRFGQSVLAGPGETSSGP | soluble
MNRFIMANSQQCLGCHACEVACVMAHNDERHVLTSQRYQPRITVIKHQHQRSAVTCHHCEDAPCARSCPNGAIAHINDSVQVNAQKCIGCKSCVVACPFGTMQMVLTPVAPNQFKASAHKCDLCQGREQGPACVENCPADALQLVTEDSLTRLAKTRRLRTARQEIRPWHTVDTQHSGAASSKAERMQATPPRGEPDKLAIEARKTTFEEIYLPFRAAQAEREASRCLTCGEHSICEWTCPLHNHIPQWIELVKAGDIDAAVELSHQTNCLPEITGRVCPQDRLCEGACTLRDEYGAVTIGNIERYISDRALSKGWRPDLSDVQKSDKRVAIIGAGPAGLACADVLARHGVSATVYDRHPEIGGLLTFGIPAFKLDKSLLARRREIFSAMGIRFELNCEVGKDISLETLLESYDAVFVGVGTYRSMKADLPNEDAPGVYDALPFLIANTKQVMGLPALPDEPFIDTAGLNVVVLGGGDTAMDCVRTALRHGAANVTCAYRRDEANMPGSKKEVKNAREEGANFEFNVQPVELVLDTHGRASGIRFLRTRLGEPDGQGRRRPVPVPDSEFVMPADAVIMAFGFHPHGMSWLESHGVKVDNWGRIAASVESEFRYQTSNPKIFAGGDAVRGADLVVTAMAEGRHAAQGILDWLAK | not soluble
